# Reference: US8673594B2, “Methods for stimulating nervous system regeneration and repair by regulating arginase I and polyamine synthesis” (Research Foundation of City University of New York, priority 2000, dated 2014)
# B1: BDNF: Brain-derived neurotrophic factor, Trk-family neurotrophin (protein, UniProt P23560 19-247, looked up)
# Neurotrophic factor BDNF …: APMKEANIRGQGGLAYPGVRTHGTLESVNGPKAGSRGLTSLADTFEHVIEELLDEDQKVRPNEENNKDADLYTSRVMLSSQVPLEPPLLFLLEEYKNYLDAANMSMRVRRHSDPARRGELSVCDSISEWVTAADKKTAVDMSGGTVTVLEKVPVSKGQLKQYFYETKCNPMGYTKEGCRGIDKRHWNSQCRTTQSYVRALTMDSKKRIGWRFIRIDTSCVCTLTIKRGR
# B2: GDNF: glial cell line-derived neurotrophic factor (protein, UniProt P39905 78-211, looked up)
# Glial cell line-derived …: SPDKQMAVLPRRERNRQAAAANPENSRGKGRRGQRGKNRGCVLTAIHLNVTDLGLGYETKEELIFRYCSGSCDAAETTYDKILKNLSRNRRLVSDKVGQACCRPIAFDDDLSFLDDNLVYHILRKHSAKRCGCI
# How the values were obtained:
# [1] = system: cerebellar neurons on purified CNS myelin; experiment: Neurite outgrowth of cerebellar neurons on purified CNS myelin substrate; format: cell-based; details: for block of myelin-dependent inhibition in the presence of a transcriptional inhibitor: dbcAMP 1 mM or BDNF 200 ng/ml priming, with DRB 5 μM; for block of inhibition by myelin after priming: neurons primed with neurotrophin
# Protocol: Isolated cerebellar neurons at a density of 20,000 neurons per well were plated onto a substrate of purified CNS myelin and cultured overnight before being fixed and immunostained for GAP43. The length of the longest neurite per neuron from 180-200 neurons was measured and results are the average length+/−SEM. Where indicated, dibutyryl cAMP (dbcA) at 1 mM in the presence or absence of the inhibitor of transcription, 5,6-dichloro-1-b-D-ribofuranosylbenzimidazole (DRB) at 5 μM, was added to each culture. (B) Cerebellar neurons (1×10^6) were plated onto poly-L-lysine and cultured overnight with brain-derived neurotrophic factor (BDNF) at 200 ng/ml, (termed priming) in the presence or absence of DRB at 5 μM, before being transferred to the CNS myelin substrate.
# The longest neurite from at least 180-200 neurons were measured. Results are shown as the mean neurite length+/−SEM.
# After further incubation, neurons were fixed and immunostained for GAP43. The longest neurite from each neuron for 180-200 neurons were measured. Results are shown as the mean neurite length+/−SEM.
# Primed neurons were transferred to either MAG-expressing or control CHO cells (A) or a substrate of CNS myelin (B) for further incubation. Neurons were then fixed and immunostained for GAP43. The longest neurite from each neuron was measured for 180-200 neurons.
# Trypsinization was stopped by addition of 5 ml DMEM containing 10% fetal calf serum (FCS) and cells were centrifuged at 800 rpm for 6 min. […] The ganglia were triturated with a fire-polished Pasteur pipette. […] Cells were counted with a Coulter counter.
# The neurite outgrowth assay was carried out by adding 5×10^4 neurons to the immobilized myelin substrate or 2×10^4 neurons to the CHO cell monolayers. Briefly, confluent monolayers of control and MAG-expressing CHO cells were established over a 24-hour (h) period in individual chambers of an 8-well tissue culture slide (Lab-Tek). […] Culture medium was SATO containing 2% FCS.
# GAP43 antibody was detected by staining with Texas Red and arginase antibody was detected with anti-biotin secondary antibody followed by Texas Red-conjugated streptavidin.
# After periods of time as indicated, the co-cultures were fixed for 30 min with 4% paraformaldehyde and permeabilized with ice-cold methanol for 2 min. […] After three more washes, the slides were mounted in Permfluor (Baxter) and viewed with a Zeiss fluorescent microscope. The length of the longest neurite for each GAP43-positive neuron was determined using the Biological Detection System image analysis program (Pittsburgh).
# [2] = system: ArgI protein in cerebellar neurons; experiment: Arginase I protein level in cerebellar neurons by SDS-PAGE and Western blot; format: cell-based; details: for increase in amount of ArgI protein: after 1 hour of exposure; for increase in amount of ArgI protein / time of peak of ArgI protein increase post-treatment / time for which ArgI protein increase was sustained: dbcAMP 1 mM or BDNF 200 ng/ml; for time for which ArgI protein increase was sustained: declining by 24 hours
# Protocol: Cerebellar neurons were untreated (−) or exposed to either (A) 200 ng/ml BDNF or (B) 1 mM dbcAMP for 1 hour (h), 3 h, 21 h or 24 h; or (C) 200 ng/ml GDNF (+) for 1 h, 3 h or 5 h and the cells lysed in the presence of protease inhibitors. Total protein (23 μg) was subjected to SDS-polyacrylamide gel (12%) electrophoresis (SDS-PAGE), transferred to nitrocellulose membrane and immunostained with antibody to Arg I. The arrows indicate the position of ArgI polypeptide.
# We next assessed the expression of ArgI in cerebellar neurons at the protein level. After exposure of cerebellar neurons to either dbcAMP or BDNF for various times, neurons were lysed, proteins were extracted and the extracted proteins were separated by SDS PAGE before being transferred to membrane and immunostained with a polyclonal antibody against arginase I (see Example 2).
# Cerebellar neurons were untreated (−) or exposed to 200 ng/ml GDNF for 1 h, 3 h or 5 h and the cells lysed in the presence of protease inhibitors. Total protein (23 μg) was subjected to SDS-polyacrylamide gel (12%) electrophoresis (SDS-PAGE), transferred to nitrocellulose membrane and immunostained with antibody to Arg I. As shown in FIG. 5(C), the amount of ArgI polypeptide increased at least two-fold after treatment of neurons with GDNF.
# Neurons were lysed, proteins were extracted and the extracted proteins (23 μg of total protein per lane) separated by SDS-polyacrylamide gel (12%) electrophoresis (SDS-PAGE) according to well-known procedures (see Ausubel et al., supra). Separated proteins were transferred to nitrocellulose membrane and immunostained with antibody to Arg I. The results are shown in FIG. 5, where the arrows indicate the position of ArgI polypeptide. Polyclonal antibodies were generated against the recombinant arginase of Cavalli at al., Biochemistry, 33, pp. 10652-657 (1994), which described the recombinant expression and purification of rat liver arginase I in E. coli. Polyclonal antibodies were generated essentially according to the procedures of Hanly et al., ILAR Journal, 37, pp. 141-152 (1995), incorporated herein by reference.
# For the measurement of arginase I protein levels by immunoblot, cells were harvested and washed with ice cold PBS and then resuspended (100 μl/10^7 cells) in ice cold extraction buffer containing 50 mM Tris-HCl, pH 7.4, 150 mM NaCl, 2 mM EDTA, Triton-X 100, 1 mM phenylmethylsulfonyl fluoride (PMSF), 10 micrograms/ml leupeptin, 1 micromolar pepstatin, 1 mM N-ethylmaleimide (NEM), 2 mM Na3VO4, 20 mM sodium pyrophosphate, and 50 mM NaP). Lysates were centrifuged at 15,000 RPM at 4 degrees centigrade for 30 minutes. The clear cytosol was separated from the insoluble pellet fraction and immediately used for immunoblot. The supernatants were removed carefully and the protein concentration was quantified by the Bradford method. Lysates were mixed with boiling Laemmli's buffer (1× is 100 mM Tris-HCl, pH 6.8, 4% SDS, 200 mM dithiothreitol, 20% glycerol, 2% SDS, 0.2% bromophenol blue, 10 micrograms/ml aprotinin, 10 micrograms/ml leupeptin). The samples were boiled for 10 minutes at 100° C. and centrifuged at 15,000 rpm for 10 seconds. Approximately 30 micrograms of protein was electrophoresed under reducing conditions on 10% SDS-polyacrylamide gels and transferred to nitrocellulose membrane. Membranes were blocked in 5% skim milk in TBST (Tris, pH 7.4; 150 mM NaCl; 0.05% Tween 20) for 30 minutes at room temperature. Blots were probed with primary antibodies overnight at 4° C., followed by incubation with anti-rabbit or anti-mouse IgG conjugated with horseradish peroxidase (Bio-Rad, Hercules, Calif.) for 1 hour. Signals were detected using the ECL system (Amersham Corp, Arlington, Heights, Ill.).
Molecule,block of inhibition of neurite growth by myelin ([1]; dbcAMP 1 mM added directly to the culture),block of myelin-dependent inhibition in the presence of a transcriptional inhibitor [1],increase in amount of ArgI protein [2],time of peak of ArgI protein increase post-treatment [2],time for which ArgI protein increase was sustained [2] [h],block of inhibition by myelin after priming [1],"increase in amount of ArgI polypeptide ([2]; 200 ng/ml GDNF for 1 h, 3 h or 5 h)"
"CCCC(=O)Nc1ncnc2c1ncn2[C@@H]1O[C@@H]2COP(=O)(O)O[C@H]2[C@H]1OC(=O)CCC [dbcAMP, dibutyryl cAMP]",blocks the inhibition of neurite growth,completely lost,at least two-fold,around 3 hours,21,,
B1,,completely lost,at least two-fold,around 3 hours,21,overcomes inhibition of regeneration by MAG and myelin,
B2,,,,,,overcomes inhibition of regeneration by MAG and myelin,at least two-fold
